Experimental data published in patent US20030092631A1 (Genentech, published 2003).

B1: EAGAESRGWLQARCGELLGV (peptide)
chain: EAGAESRGWLQARCGELLGVGGGSGGGAEGDDPAKAAFNSLQASATEYIGYAWAMVVVIVGATIGIKLFKKFTSKAS
notes: naive clone; polyvalent P8 display on phage; STII signal left out
B2: DAMDCVVGPEWRKCFLEG (peptide)
chain: DAMDCVVGPEWRKCFLEGGGGSGGGAEGDDPAKAAFNSLQASATEYIGYAWAMVVVIVGATIGIKLFKKFTSKAS
notes: as for B1
B3: QIPAGCYESVQSLLECVQSA (peptide)
chain: QIPAGCYESVQSLLECVQSAGGGSGGGAEGDDPAKAAFNSLQASATEYIGYAWAMVVVIVGATIGIKLFKKFTSKAS
notes: as for B1
B4: VKDECLMSVEALKNCMGLVS (peptide)
chain: VKDECLMSVEALKNCMGLVSGGGSGGGAEGDDPAKAAFNSLQASATEYIGYAWAMVVVIVGATIGIKLFKKFTSKAS
notes: as for B1
B5: REVKCMKDLSGHEYCWAEPR (peptide)
chain: REVKCMKDLSGHEYCWAEPRGGGSGGGAEGDDPAKAAFNSLQASATEYIGYAWAMVVVIVGATIGIKLFKKFTSKAS
notes: as for B1
B6: STYSCIRDMGWAVYCWETTL (peptide)
chain: STYSCIRDMGWAVYCWETTLGGGSGGGAEGDDPAKAAFNSLQASATEYIGYAWAMVVVIVGATIGIKLFKKFTSKAS
notes: as for B1
B7: GESTCVTDLERVEYCWDEKS (peptide)
chain: GESTCVTDLERVEYCWDEKSGGGSGGGAEGDDPAKAAFNSLQASATEYIGYAWAMVVVIVGATIGIKLFKKFTSKAS
notes: as for B1
B8: VESECLLSLPNLRRCMMDRL (peptide)
chain: VESECLLSLPNLRRCMMDRLGGGSGGGAEGDDPAKAAFNSLQASATEYIGYAWAMVVVIVGATIGIKLFKKFTSKAS
notes: as for B1
B9: EVARCVVDAGGTWYCWAEMA (peptide)
chain: EVARCVVDAGGTWYCWAEMAGGGSGGGAEGDDPAKAAFNSLQASATEYIGYAWAMVVVIVGATIGIKLFKKFTSKAS
notes: as for B1
B10: SGTACRWGPSWLLCSLAGSP (peptide)
chain: SGTACRWGPSWLLCSLAGSPGGGSGGGAEGDDPAKAAFNSLQASATEYIGYAWAMVVVIVGATIGIKLFKKFTSKAS
notes: as for B1
B11: GEAAECAYDSLGMAYCYAKE (peptide)
chain: GEAAECAYDSLGMAYCYAKEGGGSGGGAEGDDPAKAAFNSLQASATEYIGYAWAMVVVIVGATIGIKLFKKFTSKAS
notes: as for B1
B12: GIREELCDKGLHKMCFREVR (peptide)
chain: GIREELCDKGLHKMCFREVRGGGSGGGAEGDDPAKAAFNSLQASATEYIGYAWAMVVVIVGATIGIKLFKKFTSKAS
notes: as for B1
B13: CECGKVSSRGCEKLCWLVSYM (peptide)
chain: CECGKVSSRGCEKLCWLVSYMGGGSGGGAEGDDPAKAAFNSLQASATEYIGYAWAMVVVIVGATIGIKLFKKFTSKAS
notes: as for B1
B14: VMDQCFESYAEMRKCMLDGS (peptide)
chain: VMDQCFESYAEMRKCMLDGSGGGSGGGAEGDDPAKAAFNSLQASATEYIGYAWAMVVVIVGATIGIKLFKKFTSKAS
notes: as for B1
B15: YDWVEACQKWPVLCMDSTMY (peptide)
chain: YDWVEACQKWPVLCMDSTMYGGGSGGGAEGDDPAKAAFNSLQASATEYIGYAWAMVVVIVGATIGIKLFKKFTSKAS
notes: as for B1
B16: HWDWTGGYWWIGREPWKEAA (peptide)
chain: HWDWTGGYWWIGREPWKEAAGGGSGGGAEGDDPAKAAFNSLQASATEYIGYAWAMVVVIVGATIGIKLFKKFTSKAS
notes: as for B1
B17: IECWQDLQGTRLCWE (peptide)
chain: IECWQDLQGTRLCWEGGGSGGGAEGDDPAKAAFNSLQASATEYIGYAWAMVVVIVGATIGIKLFKKFTSKAS
notes: as for B1
B18: VEEKCYESITALRHCMQAMQ (peptide)
chain: VEEKCYESITALRHCMQAMQGGGSGGGAEGDDPAKAAFNSLQASATEYIGYAWAMVVVIVGATIGIKLFKKFTSKAS
notes: as for B1
B19: LSSEECWEALKWQGCLMSER (peptide)
chain: LSSEECWEALKWQGCLMSERGGGSGGGAEGDDPAKAAFNSLQASATEYIGYAWAMVVVIVGATIGIKLFKKFTSKAS
notes: as for B1
B20: GVETCYSDAMNTQYCWTTEL (peptide)
chain: GVETCYSDAMNTQYCWTTELGGGSGGGAEGDDPAKAAFNSLQASATEYIGYAWAMVVVIVGATIGIKLFKKFTSKAS
notes: as for B1
B21: HPDKCFADVRALQECMESVR (peptide)
chain: HPDKCFADVRALQECMESVRGGGSGGGAEGDDPAKAAFNSLQASATEYIGYAWAMVVVIVGATIGIKLFKKFTSKAS
notes: as for B1
B22: GAQAWLCEQREEWCGQMLGT (peptide)
chain: GAQAWLCEQREEWCGQMLGTGGGSGGGAEGDDPAKAAFNSLQASATEYIGYAWAMVVVIVGATIGIKLFKKFTSKAS
notes: as for B1
B23: GASTTCLEKYRERQWCKELT (peptide)
chain: GASTTCLEKYRERQWCKELTGGGSGGGAEGDDPAKAAFNSLQASATEYIGYAWAMVVVIVGATIGIKLFKKFTSKAS
notes: as for B1
B24: SFCEFNDWWPTCLV (peptide)
chain: SFCEFNDWWPTCLVGGGSGGGAEGDDPAKAAFNSLQASATEYIGYAWAMVVVIVGATIGIKLFKKFTSKAS
notes: as for B1
B25: GEGPECDLRQWGNLCGHWET (peptide)
chain: GEGPECDLRQWGNLCGHWETGGGSGGGAEGDDPAKAAFNSLQASATEYIGYAWAMVVVIVGATIGIKLFKKFTSKAS
notes: as for B1
B26: TAGIECAYDKHLDQYCWWKE (peptide)
chain: TAGIECAYDKHLDQYCWWKEGGGSGGGAEGDDPAKAAFNSLQASATEYIGYAWAMVVVIVGATIGIKLFKKFTSKAS
notes: as for B1
B27: F2-1 (peptide)
peptide: LGCASDLAGFWYCWAG
B28: F1-P (peptide)
peptide: DECLMSVEALKNCMGG
B29: F2-P (peptide)
peptide: ARCVVDAGGTWYCWAG
B30: F2-2 (peptide)
peptide: WRCVDDLGGFQYCWAG

Molecular target: BSA (UniProt P02769 25-607)
Sequence (P02769 25-607 limits assumed): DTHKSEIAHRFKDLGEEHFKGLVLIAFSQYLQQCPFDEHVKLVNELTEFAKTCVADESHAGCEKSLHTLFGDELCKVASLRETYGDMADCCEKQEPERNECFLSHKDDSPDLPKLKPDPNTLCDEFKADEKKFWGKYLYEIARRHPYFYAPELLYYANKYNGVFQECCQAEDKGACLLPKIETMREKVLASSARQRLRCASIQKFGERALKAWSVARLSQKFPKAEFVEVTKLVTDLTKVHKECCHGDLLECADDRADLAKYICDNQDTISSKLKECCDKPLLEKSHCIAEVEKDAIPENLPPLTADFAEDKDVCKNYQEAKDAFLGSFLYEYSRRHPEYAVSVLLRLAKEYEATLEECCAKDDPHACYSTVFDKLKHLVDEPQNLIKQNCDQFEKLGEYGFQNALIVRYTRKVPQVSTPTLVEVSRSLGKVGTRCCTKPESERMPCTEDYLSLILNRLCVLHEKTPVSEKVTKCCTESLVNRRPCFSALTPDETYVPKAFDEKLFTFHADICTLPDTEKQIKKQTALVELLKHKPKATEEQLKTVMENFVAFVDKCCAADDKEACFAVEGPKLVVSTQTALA
Assay: phage ELISA, BSA on plate
Description: (§1) From each round, individual peptide-displaying phage were isolated and analyzed for binding to IGF-1 in a phage ELISA by capturing the peptide-phage with IGF-1 immobilized on a plate, and detecting bound phage (see below). As a control for non-specific binding, the phage were also analyzed in a phage ELISA that used plates coated with BSA. […]
(§2) MAXISORP™ immunoplates (96-well) were coated with capture target protein for 2 hours at room temperature (100 μL at 5 μg/mL in 50 mM carbonate buffer, pH 9.6). The plates were then blocked for 1 h with 0.2% BSA in phosphate-buffered saline (PBS) and washed eight times with PBS, 0.05% TWEEN®-20 detergent. Phage particles were serially diluted into BSA blocking buffer and 100 μL were transferred to coated wells. After I h, plates were washed eight times with PBS, 0.05% TWEEN®-20 detergent, incubated with 100 μL of 1:3000 horse radish peroxidase/anti-M 13 antibody conjugate in BSA blocking buffer for 30 min. and then washed eight times with PBS, 0.05% TWEEN®-20 detergent and two times with PBS. Plates were developed using a tetramethylbenzidine substrate (TMB, Kirkegaard and Perry, Gaithersburg, Md.), stopped with 1.0 M H3PO₄, and read spectrophotometrically at 450 nm.

Row | Binder | binding result
1 | B1 | no binding
2 | B2 | no binding
3 | B3 | no binding
4 | B4 | no binding
5 | B5 | no binding
6 | B6 | no binding
7 | B7 | no binding
8 | B8 | no binding
9 | B9 | no binding
10 | B10 | no binding
11 | B11 | no binding
12 | B12 | no binding
13 | B13 | no binding
14 | B14 | no binding
15 | B15 | no binding
16 | B16 | no binding
17 | B17 | no binding
18 | B18 | no binding
19 | B19 | no binding
20 | B20 | no binding
21 | B21 | no binding
22 | B22 | no binding
23 | B23 | no binding
24 | B24 | no binding
25 | B25 | no binding
26 | B26 | no binding

Molecular target: T1, IGF-1 (human, UniProt P05019 49-118)
T1 sequence (P05019 49-118): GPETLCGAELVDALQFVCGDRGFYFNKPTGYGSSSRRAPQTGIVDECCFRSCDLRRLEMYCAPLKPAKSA
Assay: cell-based or functional assay

Row | Binder | Insulin KIRA | IGF-1 KIRA
27 | B27 | 40.4 µM | 
28 | B28 | 183 µM | 400 µM
29 | B29 | 300 µM | 
30 | B30 | 93.6 µM | 130 µM

Molecular target: T1, IGF-1
Assay: phage ELISA, IGF-1 on plate
Description: as §1, §2

Row | Binder | binding result
31 | B1 | binds
32 | B2 | binds
33 | B3 | binds
34 | B4 | binds
35 | B5 | binds
36 | B6 | binds
37 | B7 | binds
38 | B8 | binds
39 | B9 | binds
40 | B10 | binds
41 | B11 | binds
42 | B12 | binds
43 | B13 | binds
44 | B14 | binds
45 | B15 | binds
46 | B16 | binds
47 | B17 | binds
48 | B18 | binds
49 | B19 | binds
50 | B20 | binds
51 | B21 | binds
52 | B22 | binds
53 | B23 | binds
54 | B24 | binds
55 | B25 | binds
56 | B26 | binds
